Measurements taken from paper PMC5880107, “The Sequence-specific Peptide-binding Activity of the Protein Sulfide Isomerase AGR2 Directs Its Stable Binding to the Oncogenic Receptor EpCAM*^([image sbox.jpg])” (Molecular & Cellular Proteomics : MCP, 2018).
Substitutions are numbered along the chain they refer to. Names may count otherwise. No end group written: not given here.

B1: wt-peptide PTTIYY (non-biotinylated hexapeptide) (peptide)
peptide: PTTIYY
notes: also called PTTIYY hexapeptide; source: synthetic peptide
B2: PTTIYY hexapeptide with Tyrosine at position 6 changed to Tryptophan (peptide)
peptide: PTTIYW
notes: also called PTTIYW; source: synthetic peptide (mutational scan library)
B3: PTTIYY hexapeptide with Tyrosine at position 5 changed to Tryptophan (peptide)
peptide: PTTIWY
notes: also called PTTIWY; source: synthetic peptide (mutational scan library)
B4: PTTIYY hexapeptide with Tyrosine at position 5 changed to Phenylalanine (peptide)
peptide: PTTIFY
notes: also called PTTIFY; source: synthetic peptide (mutational scan library)
B5: PTTIYY hexapeptide with Tyrosine at position 6 changed to Phenylalanine (peptide)
peptide: PTTIYF
notes: also called PTTIYF; source: synthetic peptide (mutational scan library)
B6: PTTIYY hexapeptide with Isoleucine at position 4 changed to Leucine (peptide)
peptide: PTTLYY
notes: also called PTTLYY; source: synthetic peptide (mutational scan library)
B7: PTTIYY hexapeptide with the Y-A mutation at position 6 (peptide)
peptide: PTTIYA
notes: also called PTTIYA; source: synthetic peptide (mutational scan library)
B8: His-AGR2 WT (mature AGR2, amino acids 21-175, N-terminal 6xHis tag; plasmid pmAGR2) (natural protein, human)
chain: RDTTVKPGAKKDTKDSRPKLPQTLSRGWGDQLIWTQTYEEALYKSKTSSKPLMIIHHLDECPHSQALKKVFAENKEIQKLAEQFVLLNLVYETTDKHLSPDGQYVPRIMFVDPSLTVRADITGRYSNRLYAYEPADTALLLDNMKKALKLLKTEL
notes: human AGR2, mature form without the ER leader, residues 21-175; also called wt-AGR2; wild-type AGR2; source: E. coli BL21-AI, purified (Ni-NTA agarose; gel filtration buffer exchange for HDX)
B9: His-AGR2 S134A (plasmid pmAGR2S134A) (natural protein, human)
chain: B8 chain with S114A
notes: Ser at 69 as in m1; also called mutant AGR2^S134A; source: E. coli BL21-AI, purified (Ni-NTA agarose; gel filtration buffer exchange for HDX)
B10: His-AGR2 D132A (plasmid pmAGR2D132A) (natural protein, human)
chain: B8 chain with D112A
notes: human AGR2 residues 21-175; source: E. coli BL21-AI, purified (Ni-NTA agarose); not shown: His6 (leader as in m1), N-terminal, kept
B11: His-AGR2 P133A (plasmid pmAGR2P133A) (natural protein, human)
chain: B8 chain with P113A
notes: as for B10

Columns and labels:
[1] = target: B8; assay: ELISA; competition: biotinylated peptide A4 on the streptavidin-coated solid phase; fixed 1 μg AGR2 added with 100 ng of the indicated non-biotinylated synthetic peptide; AGR2 binding in RLU; settings: both partners purified
[2] = target: T1, 16mer AGR2-interacting peptide SGSG-HLPTTIYYGPPG; assay: HDX-MS; His-AGR2 WT 1 μM incubated 30 min with peptide 10 μM (1% DMSO), 10-fold dilution into deuterated buffer (20 mM Tris-HCl pD 7.6, 150 mM NaCl, 10 mM MgCl2), room temperature, 30 s to 3 h, pepsin; settings: both partners purified
T1 construct: peptide A4 with an N-terminal SGSG stretch, as used for hydrogen-deuterium exchange; also called peptide A4 (in the HDX experiment); consensus site peptide A4; source: synthetic peptide (Chiron Mimotopes), stock 5 mg/ml in DMSO
T1 peptide: SGSGHLPTTIYYGPPG

[3] = target: T2, biotinylated Peptide A4 (AGR2-binding peptide aptamer, HLPTTIYYGPPG) (also: biotinylated, end not given here); assay: ELISA; biotinylated peptide A4 (5 μg/well) captured on streptavidin-coated microtitre plate; wt or mutant AGR2 titrated in 3% BSA in PBS-T, 1 h room temperature; detected with AGR2 antibody K47, RLU; settings: both partners purified
T2 construct: also called TTIYY-containing peptide; source: synthetic peptide (Chiron Mimotopes)
T2 peptide: HLPTTIYYGPPG

[4] = target: free consensus site containing peptides; assay: fluorescence polarisation; data not shown; AGR2 binding to free consensus site containing peptides in solution
[5] = target: T3, His-EpEX-CO, extracellular domain of EpCAM (amino acids 24-265), N-terminal 6xHis tag (human); assay: ELISA; His-EpCAM (EpEX, wt or Y251A) immobilised on polystyrene microtitre plate in 0.1 M NaHCO3 pH 8.6; AGR2 wt or mutants titrated in the mobile phase (0-1 μg), 1 h room temperature; without or with 1 mM DTT at the binding or the blocking step; detected with AGR2 antibody K47, RLU; settings: both partners purified
T3 construct: human EpCAM extracellular domain (EpEX), amino acids 24-265 of NM_002354; For HDX the protein was eluted with 1 mM DTT in the final buffer; also called wt-EpCAM; His-EpCAM; source: E. coli BL21-DE3, solubilised with 7 M urea, purified (Ni-NTA agarose); not shown: His6 followed by a TEV protease site, N-terminal, kept
T3 chain: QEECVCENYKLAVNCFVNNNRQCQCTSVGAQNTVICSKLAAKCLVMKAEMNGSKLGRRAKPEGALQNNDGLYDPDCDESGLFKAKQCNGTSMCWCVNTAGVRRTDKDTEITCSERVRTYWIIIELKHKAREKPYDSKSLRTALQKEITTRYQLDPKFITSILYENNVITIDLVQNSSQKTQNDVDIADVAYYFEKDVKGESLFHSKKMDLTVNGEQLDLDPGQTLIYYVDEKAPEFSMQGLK

B1
binding result [1]: binds

B2
binding result [1]: binds

B3
binding result [1]: binds

B4
binding result [1]: binds

B5
binding result [1]: binds

B6
binding result [1]: binds

B7
binding result [1]: binds

B8
binding result [2]: binds
binding result [3]: binds
Kd [4]: 15 to 45 µM
binding result [5]: binds

B9
binding result [3]: binds
binding result [5]: binds

B10
binding result [3]: binds
binding result [5]: binds

B11
binding result [3]: binds
binding result [5]: binds
